Data reported in patent publication US20220042033A1, “COMPOSITION AND METHOD FOR CONFERRING AND/OR ENHANCING TOLERANCE AGAINST HERBICIDES BY USING VARIANTS OF PPO” (FarmHannong Co., Ltd., priority 2017, published 2022).

B1: V164A: MxPPO (SEQ ID NO: 3) variant (protein)
chain: MHHMPRTTGMNVAVVGGGISGLAVAHHLRSRGTDAVLLESSARLGGAVGTHALAGYLVEQGPNSFLDREPATRALAAALNLEGRIRAADPAAKRRYVYTRGRLRSVPASPPAFLASDILPLGARLRVAGELFSRRAPEGVDESLAAFGRRHLGHRATQVLLDAAQTGIYAGDVEQLSVAATFPMLVKMEREHRSLILGAIRAQKAQRQAALPAGTAPKLSGALSTFDGGLQVLIDALAASLGDAAHVGARVEGLAREDGGWRLIIEEHGRRAELSVAQVVLAAPAHATAKLLRPLDDALAALVAGIAYAPIAVVHLGFDAGTLPAPDGFGFLVPAEEQRRMLGAIHASTTFPFRAEGGRVLYSCMVGGARQPGLVEQDEDALAALAREELKALAGVTARPSFTRVFRWPLGIPQYNLGHLERVAAIDAALQRLPGLHLIGNAYKGVGLNDCIRNAAQLADALVAGNTSHAP
modifications: Synthetic (Protoporphyrinogen IX oxidase (MxPPO) of Myxococcus xanthus)
B2: I345T: MxPPO (SEQ ID NO: 3) variant (protein)
chain: MHHMPRTTGMNVAVVGGGISGLAVAHHLRSRGTDAVLLESSARLGGAVGTHALAGYLVEQGPNSFLDREPATRALAAALNLEGRIRAADPAAKRRYVYTRGRLRSVPASPPAFLASDILPLGARLRVAGELFSRRAPEGVDESLAAFGRRHLGHRATQVLLDAVQTGIYAGDVEQLSVAATFPMLVKMEREHRSLILGAIRAQKAQRQAALPAGTAPKLSGALSTFDGGLQVLIDALAASLGDAAHVGARVEGLAREDGGWRLIIEEHGRRAELSVAQVVLAAPAHATAKLLRPLDDALAALVAGIAYAPIAVVHLGFDAGTLPAPDGFGFLVPAEEQRRMLGATHASTTFPFRAEGGRVLYSCMVGGARQPGLVEQDEDALAALAREELKALAGVTARPSFTRVFRWPLGIPQYNLGHLERVAAIDAALQRLPGLHLIGNAYKGVGLNDCIRNAAQLADALVAGNTSHAP
modifications: Synthetic (Protoporphyrinogen IX oxidase (MxPPO) of Myxococcus xanthus)
B3: A170C: MxPPO (SEQ ID NO: 3) variant (protein)
chain: MHHMPRTTGMNVAVVGGGISGLAVAHHLRSRGTDAVLLESSARLGGAVGTHALAGYLVEQGPNSFLDREPATRALAAALNLEGRIRAADPAAKRRYVYTRGRLRSVPASPPAFLASDILPLGARLRVAGELFSRRAPEGVDESLAAFGRRHLGHRATQVLLDAVQTGIYCGDVEQLSVAATFPMLVKMEREHRSLILGAIRAQKAQRQAALPAGTAPKLSGALSTFDGGLQVLIDALAASLGDAAHVGARVEGLAREDGGWRLIIEEHGRRAELSVAQVVLAAPAHATAKLLRPLDDALAALVAGIAYAPIAVVHLGFDAGTLPAPDGFGFLVPAEEQRRMLGAIHASTTFPFRAEGGRVLYSCMVGGARQPGLVEQDEDALAALAREELKALAGVTARPSFTRVFRWPLGIPQYNLGHLERVAAIDAALQRLPGLHLIGNAYKGVGLNDCIRNAAQLADALVAGNTSHAP
modifications: Synthetic (Protoporphyrinogen IX oxidase (MxPPO) of Myxococcus xanthus)
B4: L332T: MxPPO (SEQ ID NO: 3) variant (protein)
chain: MHHMPRTTGMNVAVVGGGISGLAVAHHLRSRGTDAVLLESSARLGGAVGTHALAGYLVEQGPNSFLDREPATRALAAALNLEGRIRAADPAAKRRYVYTRGRLRSVPASPPAFLASDILPLGARLRVAGELFSRRAPEGVDESLAAFGRRHLGHRATQVLLDAVQTGIYAGDVEQLSVAATFPMLVKMEREHRSLILGAIRAQKAQRQAALPAGTAPKLSGALSTFDGGLQVLIDALAASLGDAAHVGARVEGLAREDGGWRLIIEEHGRRAELSVAQVVLAAPAHATAKLLRPLDDALAALVAGIAYAPIAVVHLGFDAGTLPAPDGFGFTVPAEEQRRMLGAIHASTTFPFRAEGGRVLYSCMVGGARQPGLVEQDEDALAALAREELKALAGVTARPSFTRVFRWPLGIPQYNLGHLERVAAIDAALQRLPGLHLIGNAYKGVGLNDCIRNAAQLADALVAGNTSHAP
modifications: Synthetic (Protoporphyrinogen IX oxidase (MxPPO) of Myxococcus xanthus)
B5: M365I: MxPPO (SEQ ID NO: 3) variant (protein)
chain: MHHMPRTTGMNVAVVGGGISGLAVAHHLRSRGTDAVLLESSARLGGAVGTHALAGYLVEQGPNSFLDREPATRALAAALNLEGRIRAADPAAKRRYVYTRGRLRSVPASPPAFLASDILPLGARLRVAGELFSRRAPEGVDESLAAFGRRHLGHRATQVLLDAVQTGIYAGDVEQLSVAATFPMLVKMEREHRSLILGAIRAQKAQRQAALPAGTAPKLSGALSTFDGGLQVLIDALAASLGDAAHVGARVEGLAREDGGWRLIIEEHGRRAELSVAQVVLAAPAHATAKLLRPLDDALAALVAGIAYAPIAVVHLGFDAGTLPAPDGFGFLVPAEEQRRMLGAIHASTTFPFRAEGGRVLYSCIVGGARQPGLVEQDEDALAALAREELKALAGVTARPSFTRVFRWPLGIPQYNLGHLERVAAIDAALQRLPGLHLIGNAYKGVGLNDCIRNAAQLADALVAGNTSHAP
modifications: Synthetic (Protoporphyrinogen IX oxidase (MxPPO) of Myxococcus xanthus)
B6: F329V: MxPPO (SEQ ID NO: 3) variant (protein)
chain: MHHMPRTTGMNVAVVGGGISGLAVAHHLRSRGTDAVLLESSARLGGAVGTHALAGYLVEQGPNSFLDREPATRALAAALNLEGRIRAADPAAKRRYVYTRGRLRSVPASPPAFLASDILPLGARLRVAGELFSRRAPEGVDESLAAFGRRHLGHRATQVLLDAVQTGIYAGDVEQLSVAATFPMLVKMEREHRSLILGAIRAQKAQRQAALPAGTAPKLSGALSTFDGGLQVLIDALAASLGDAAHVGARVEGLAREDGGWRLIIEEHGRRAELSVAQVVLAAPAHATAKLLRPLDDALAALVAGIAYAPIAVVHLGFDAGTLPAPDGVGFLVPAEEQRRMLGAIHASTTFPFRAEGGRVLYSCMVGGARQPGLVEQDEDALAALAREELKALAGVTARPSFTRVFRWPLGIPQYNLGHLERVAAIDAALQRLPGLHLIGNAYKGVGLNDCIRNAAQLADALVAGNTSHAP
modifications: Synthetic (Protoporphyrinogen IX oxidase (MxPPO) of Myxococcus xanthus)
B7: I168C: MxPPO (SEQ ID NO: 3) variant (protein)
chain: MHHMPRTTGMNVAVVGGGISGLAVAHHLRSRGTDAVLLESSARLGGAVGTHALAGYLVEQGPNSFLDREPATRALAAALNLEGRIRAADPAAKRRYVYTRGRLRSVPASPPAFLASDILPLGARLRVAGELFSRRAPEGVDESLAAFGRRHLGHRATQVLLDAVQTGCYAGDVEQLSVAATFPMLVKMEREHRSLILGAIRAQKAQRQAALPAGTAPKLSGALSTFDGGLQVLIDALAASLGDAAHVGARVEGLAREDGGWRLIIEEHGRRAELSVAQVVLAAPAHATAKLLRPLDDALAALVAGIAYAPIAVVHLGFDAGTLPAPDGFGFLVPAEEQRRMLGAIHASTTFPFRAEGGRVLYSCMVGGARQPGLVEQDEDALAALAREELKALAGVTARPSFTRVFRWPLGIPQYNLGHLERVAAIDAALQRLPGLHLIGNAYKGVGLNDCIRNAAQLADALVAGNTSHAP
modifications: Synthetic (Protoporphyrinogen IX oxidase (MxPPO) of Myxococcus xanthus)
B8: M365V: MxPPO (SEQ ID NO: 3) variant (protein)
chain: MHHMPRTTGMNVAVVGGGISGLAVAHHLRSRGTDAVLLESSARLGGAVGTHALAGYLVEQGPNSFLDREPATRALAAALNLEGRIRAADPAAKRRYVYTRGRLRSVPASPPAFLASDILPLGARLRVAGELFSRRAPEGVDESLAAFGRRHLGHRATQVLLDAVQTGIYAGDVEQLSVAATFPMLVKMEREHRSLILGAIRAQKAQRQAALPAGTAPKLSGALSTFDGGLQVLIDALAASLGDAAHVGARVEGLAREDGGWRLIIEEHGRRAELSVAQVVLAAPAHATAKLLRPLDDALAALVAGIAYAPIAVVHLGFDAGTLPAPDGFGFLVPAEEQRRMLGAIHASTTFPFRAEGGRVLYSCVVGGARQPGLVEQDEDALAALAREELKALAGVTARPSFTRVFRWPLGIPQYNLGHLERVAAIDAALQRLPGLHLIGNAYKGVGLNDCIRNAAQLADALVAGNTSHAP
modifications: Synthetic (Protoporphyrinogen IX oxidase (MxPPO) of Myxococcus xanthus)

Tested on: MxPPO
Experiment: PPO enzyme activity of purified MBP-fused MxPPO wild type and variants
Assay type: biochemical, Myxococcus xanthus
Details: PPO enzyme activity of purified MxPPO protein, relative to wild type
Experimental: Thus, PPO proteins of wild type and variants were expressed as fused to MBP and were used for experiments.
The following process for purification of PPO protein was performed in a 4° C. cold room. […] The column was washed with 3 column volumes of buffer and the presence of protein in the washing solution was examined. When the protein was no longer detected, the washing procedure was terminated. Then, the MBP-PPO protein was eluted with approximately 2 column volumes of buffer containing 20 mM maltose. The protein concentration of each eluent was determined and the elution was stopped when the protein was no longer detected. Ten microliter of each fraction was investigated for protein quantification and SDS-PAGE analysis. The highly pure fractions of PPO protein variants were used for the enzyme assay.
Since protoporphyrinogen IX, a substrate of PPO protein, was not commercially available, it was chemically synthesized in the laboratory. Overall process was performed in dark under nitrogen stream. […] of protoporphyrin IX was dissolved in 20 ml of 20% (v/v) EtOH, and stirred under dark condition for 30 minutes. The obtained protoporphyrin IX solution was put into a 15 ml screw tube in an amount of 800 μl, and flushed with nitrogen gas for 5 minutes. To this, 1.5 g of sodium amalgam was added and vigorously shaken for 2 minutes. The lid was opened to exhaust hydrogen gas in the tube. Thereafter, the lid was closed and incubated for 3 minutes. The protoporphyrinogen IX solution was filtered using syringe and cellulose membrane filter. To 600 μl of the obtained protoporphyrinogen IX solution, approximately 300 μl of 2M MOPS [3-(N-morpholino) propanesulfonic acid] was added to adjust pH to 8.0. To determine the enzyme activity of PPO protein, a reaction mixture was prepared with the following composition (based on 10 ml): 50 mM Tris-Cl (pH 8.0); 50 mM NaCl; 0.04% (v/v) Tween 20; 40 mM glucose (0.072 g); 5 units glucose oxidase (16.6 mg); and 10 units catalase (1 μl).
Hundred and eighty microliters of a reaction mixture […] were placed in 96 well plates and 20 μl of purified PPO proteins were added. After 50 μl of the mineral oil was layered, the reaction was initiated by adding the substrate, protoporphyrinogen IX solution, to a final concentration of 50 μM. The reaction proceeded at room temperature for 30 min and the fluorescence of protoporphyrin IX was measured using Microplate reader (Sense, Hidex) (excitation: 405 nm; emission: 633 nm). To calculate the PPO enzyme activity, the protoporphyrinogen IX solution was kept open in the air overnight to oxidize the solution. To this, 2.7 N HCl was added, and the absorbance at 408 nm was measured. A standard curve was generated using standard protoporphyrin IX, and PPO activity was measured by calibration of protoporphyrin IX using the standard curve of protoporphyrin IX.
Activities of variants were presented relatively compared to that of wild type.

In order of rising “Activity (%)” value:
1. B2  33%
2. B7  47%
3. B1  75%
4. B8  77%
5. B5  82%
6. B3  86%
7. B4  87%
8. B6  91%
